Measurements reported in patent US20210101973A1.
Ends that are not written are not given here.

Tests used:
[1] = target: GHSR on the PathHunter U2OS GHSR beta-Arrestin Cell Line (DiscoverX), Q92847; assay: cell-based or functional assay
[2] = target: wild-type GHSR stably expressed in an independent cell line (calcium mobilization assay), Q92847; assay: cell-based or functional assay
Sequence of wild-type GHSR stably expressed in an independent cell line (calcium mobilization assay), Q92847 (Q92847 whole entry): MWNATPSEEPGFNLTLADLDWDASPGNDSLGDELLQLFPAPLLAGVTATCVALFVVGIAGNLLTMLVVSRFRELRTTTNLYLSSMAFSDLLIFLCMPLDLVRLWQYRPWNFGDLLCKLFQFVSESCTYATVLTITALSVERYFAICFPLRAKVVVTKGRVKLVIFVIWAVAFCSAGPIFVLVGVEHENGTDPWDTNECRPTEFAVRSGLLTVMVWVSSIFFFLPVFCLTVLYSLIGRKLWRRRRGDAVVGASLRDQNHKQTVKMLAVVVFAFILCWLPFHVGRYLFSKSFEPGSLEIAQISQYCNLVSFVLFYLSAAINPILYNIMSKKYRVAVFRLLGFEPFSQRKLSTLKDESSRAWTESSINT

B1: synthetic LEAP2 peptide (mature peptide of human LEAP2) (peptide)
peptide: MTPFWRGVSLRPIGASCRDDSECITRLCRKRRCSLSVAQE
modifications: disulfide (positions not given here); also: labeled with Alexa 647, site not given here
IC50 of inhibition of ghrelin-induced GHSR activation, PathHunter beta-arrestin assay, antagonist format (ghrelin 13 nM) [1]: 6.74 nM | IC50 of abrogation of ghrelin-induced GHSR activity, calcium mobilization (FLUO-3) [2]: 11.6 nM
